Results from patent US20240318135A1.

Legend:
[1] = target: MART-1 peptide on HLA-A*02:01 (human); assay: NFAT-eGFP in TnT-TCR cells after overnight co-culture with peptide-pulsed T2 cells, FIG. 8C; full-length, on cells
[2] = target: HLA-A*0201-… MHC dextramer (human); assay: flow cytometry of TnT-TCR cells stained with fluorescently-labelled pMHC dextramer and anti-CD3
[3] = target: HLA-A*0201-… MHC dextramer (human); assay: flow cytometry, serial dilutions of the target pMHC dextramer on TnT-TCR cells, pMHC-dex+ cells (% of max), three-parameter fit, n=3; the concentration is that of the dextramer
[4] = target: HLA-A*0201-… MHC dextramer (human); assay: flow cytometry, serial dilutions of pMHC dextramer on TnT-TCR cells; EC50 of normalized dextramer saturation curves
[5] = target: MART-1 peptide … presented by HLA*A0201 on T2 cells (human)
[6] = target: MART-1 peptide … presented by HLA*A0201 on T2 cells (human); assay: cell-based or functional assay
[7] = target: NY-ESO-1 peptide … presented by HLA*A0201 on T2 cells (human)

Q: How did the difference of peptide EC50 between DMF4 and DMF5 [1] turn out when DMF5 was run?
A: < 2 fold

Q: Which results are given for TCR DMF5?
A: Q2 (percent of cells CD3+ and [..] pMHC dex+) (% (unit not given)) [2]: 99.1; EC50 [3]: 0.00692 nM; fold lower EC50 than DMF4 [4]: 39 fold; EC50 (peptide concentration for half-maximal GFP+ cells, NFAT-GFP reporter) [5]: 8.13 nM; fold difference in functional EC50 between DMF4 and DMF5 [6]: < 2 fold

Q: TCR 1G4 was tested. Which Q2 (percent of cells CD3+ and [..] pMHC dex+) (% (unit not given)) [2] did it give?
A: 96.1

Q: What about the EC50 [3] of the same substance?
A: 0.0568 nM

Q: What about the EC50 (peptide concentration for half-maximal GFP+ cells, NFAT-GFP reporter) [7] of the same substance?
A: 167 nM

Q: Which Q2 (percent of cells CD3+ and [..] pMHC dex+) (% (unit not given)) [2] does the source give for TCR DMF4 here?
A: 48

Q: And the EC50 [3]?
A: 0.267 nM

Q: What about the EC50 (peptide concentration for half-maximal GFP+ cells, NFAT-GFP reporter) [5] of the same substance?
A: 14.2 nM
